The text below walks through data of patent publication US20220332795A1 (ARO BIOTHERAPEUTICS, published 2022).

The target of experiment [1] is T1, CD71 apical domain (UniProt P02786 189-383, limits assumed).
T1 construct: domain: Apical domain
In words: solution ELISA. (In general: In an ELISA, binding on a coated surface is turned into a signal by an enzyme label.)

Experiment [2] concerns the target T2, recombinant biotinylated human CD71 extracellular domain (human, UniProt P02786 89-760, biotinylated).
T2 construct: extracellular domain; also called hCD71; huCD71 ECD
The experiment is described as follows: solution ELISA.

Experiment [3] concerns the target T1, CD71 apical domain. In words: solution ELISA, signal ratio to HSA.
Experiment [4] addresses T2, recombinant biotinylated human CD71 …. The experiment is described as follows: solution ELISA, signal ratio to HSA.

T1 sequence (P02786 189-383 limits assumed): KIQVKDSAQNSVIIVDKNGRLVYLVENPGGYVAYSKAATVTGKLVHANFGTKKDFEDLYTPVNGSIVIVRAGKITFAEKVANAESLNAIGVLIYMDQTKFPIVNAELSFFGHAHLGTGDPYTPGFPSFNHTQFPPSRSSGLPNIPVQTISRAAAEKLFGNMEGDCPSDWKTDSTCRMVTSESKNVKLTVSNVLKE
T2 sequence (P02786 other isoform, or with tags, fused parts or gaps): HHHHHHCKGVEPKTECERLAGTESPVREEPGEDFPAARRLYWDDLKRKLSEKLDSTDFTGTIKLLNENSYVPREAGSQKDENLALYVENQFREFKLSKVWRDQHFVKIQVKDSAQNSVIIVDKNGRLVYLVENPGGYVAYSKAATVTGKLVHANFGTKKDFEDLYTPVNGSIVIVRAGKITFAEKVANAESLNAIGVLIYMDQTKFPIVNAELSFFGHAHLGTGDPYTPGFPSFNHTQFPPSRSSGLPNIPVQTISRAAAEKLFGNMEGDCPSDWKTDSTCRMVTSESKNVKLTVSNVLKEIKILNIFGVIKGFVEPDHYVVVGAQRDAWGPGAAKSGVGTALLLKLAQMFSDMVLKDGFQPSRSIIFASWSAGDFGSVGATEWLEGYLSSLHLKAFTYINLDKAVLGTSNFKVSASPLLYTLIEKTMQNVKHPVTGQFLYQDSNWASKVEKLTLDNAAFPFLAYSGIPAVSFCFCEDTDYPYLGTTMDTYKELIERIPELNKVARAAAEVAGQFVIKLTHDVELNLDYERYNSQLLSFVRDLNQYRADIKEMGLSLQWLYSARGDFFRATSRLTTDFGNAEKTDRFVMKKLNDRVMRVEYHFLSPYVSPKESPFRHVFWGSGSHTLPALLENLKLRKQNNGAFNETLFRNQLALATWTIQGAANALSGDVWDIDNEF

B1: SEQ ID NO 141 (designed binder)
chain: MLPAPKNLVVSRVTEDSARLSWTAPDAAFDSFYIAYAEPRPDGEAIFLGVPGSERSYDLTGLKPGTEYSVLIHGVKGGLLSSPLIAFFTT
notes: FN3 domain
Consider B1, for which the “Apical domain, RLU” value in experiment [1] was 4.96e+06 RLU. Besides, the “hCD71, RLU” value in experiment [2] turned out to be 965000 RLU. Further, the “apical domain:HSA” value in experiment [3] was found to be 190. Also, the “hCD71:HSA” value in experiment [4] stood at 37.

B2: SEQ ID NO 148 (designed binder)
chain: MLPAPKNLVVSRVTEDSARLSWTAPDAAFDSFYIAYAEPRPDGEAIALHVPGSERSYDLTGLKPGTEYSVLIHGVKGGLLSSPLRAVFTT
notes: FN3 domain
Regarding B2, the “Apical domain, RLU” value in experiment [1] was 3.41e+06 RLU. For the same molecule, in experiment [2], the “hCD71, RLU” value worked out at 290000 RLU. The “apical domain:HSA” value in experiment [3] was found to be 248. The “hCD71:HSA” value in experiment [4] is 21.1.

B3: SEQ ID NO 145 (designed binder)
chain: MLPAPKNLVVSRVTEDSARLSWTAPDAAFDSFYIAYAEPRPDGEAILLQVPGSERSYDLTGLKPGTEYSVLIHGVKGGLLSSPLTAIFTT
notes: FN3 domain
Turning to B3, the “Apical domain, RLU” value in experiment [1] came out at 8.3e+06 RLU. Besides, the “hCD71, RLU” value in experiment [2] came to 6.2e+06 RLU. The “apical domain:HSA” value in experiment [3] turned out to be 466. For the same molecule, in experiment [4], the “hCD71:HSA” value is 348.

B4: SEQ ID NO 144 (designed binder)
chain: MLPAPKNLVVSRVTEDSARLSWTAPDAAFDSFYIAYAEPRPDGEAIGLYVPGSERSYDLTGLKPGTEYSVLIHGVKGGLLSSPLGAFFTT
notes: FN3 domain
B4: in experiment [1], the “Apical domain, RLU” value is 3.91e+06 RLU. For the same molecule, in experiment [2], the “hCD71, RLU” value came to 516000 RLU. Besides, the “apical domain:HSA” value in experiment [3] turned out to be 234. For the same molecule, the “hCD71:HSA” value in experiment [4] was determined as 30.8.

B5: SEQ ID NO 150 (designed binder)
chain: MLPAPKNLVVSRVTEDSARLSRTAPDAAFDSFYIAYAEPRPDGEAIVLIVPGSERSYDLTGLKPGTEYSVLIHGVKGGLLSSPLSAIFTT
notes: FN3 domain
For the molecule B5, the “Apical domain, RLU” value in experiment [1] was determined as 3.16e+06 RLU. Moreover, the “hCD71, RLU” value in experiment [2] came to 1.3e+06 RLU. Moreover, in experiment [3], the “apical domain:HSA” value was found to be 30.8. Also, the “hCD71:HSA” value in experiment [4] was 12.7.

B6: SEQ ID NO 147 (designed binder)
chain: MLPAPKNLVVSRVTEDSARLSWTAPDAAFDSFYIAYAEPRPDGEAIVLEVPGSERSYDLTGLKPGTEYSVLIHGVKGGLLSSPLDAHFTT
notes: FN3 domain
Take B6: the “Apical domain, RLU” value in experiment [1] came out at 6.89e+06 RLU. Also, the “hCD71, RLU” value in experiment [2] was determined as 2.94e+06 RLU. Further, in experiment [3], the “apical domain:HSA” value was 478. For the same molecule, the “hCD71:HSA” value in experiment [4] was determined as 204.

B7: SEQ ID NO 152 (designed binder)
chain: MLPAPKNLVVSRVTEDSARLSWTAPDAAFDSFYIAYAEPRPDGEAITLDVPGSERSYDLTGLKPGTEYSVLIHGVKGGLLSSPLYAFFTT
notes: FN3 domain
On to B7, for which the “Apical domain, RLU” value in experiment [1] came to 4.96e+06 RLU. Also, the “hCD71, RLU” value in experiment [2] amounted to 764000 RLU. The “apical domain:HSA” value in experiment [3] came out at 359. In experiment [4], the “hCD71:HSA” value came to 55.4.

B8: SEQ ID NO 143 (designed binder)
chain: MLPAPKNLVVSRVTEDSARLSWTAPDAAFDSFYIAYAEPRPDGEAILLFVPGSERSYDLTGLKPGTEYSVLIHGVKGGLLSSPLVAHFTT
notes: FN3 domain
With B8, the “Apical domain, RLU” value in experiment [1] was determined as 7.51e+06 RLU. The “hCD71, RLU” value in experiment [2] was found to be 3.25e+06 RLU. The “apical domain:HSA” value in experiment [3] is 363. In addition, in experiment [4], the “hCD71:HSA” value stood at 157.

B9: SEQ ID NO 146 (designed binder)
chain: MLPAPKNLVVSRVTEDSARLSWTAPDAAFDSFYIAYAEPRPDGEAITLHVPGSERSYDLTGLKPGTEYSVLIHGVKGGLLSSPLSAIFTT
notes: FN3 domain
Consider B9, for which, in experiment [1], the “Apical domain, RLU” value is 5.72e+06 RLU. Moreover, in experiment [2], the “hCD71, RLU” value was 1.08e+06 RLU. The “apical domain:HSA” value in experiment [3] worked out at 337. For the same molecule, in experiment [4], the “hCD71:HSA” value is 63.7.

B10: SEQ ID NO 149 (designed binder)
chain: MLPAPKNLVVSRVTEDSARLSWTAPDAAFDSFYIAYAEPRPDGEAIQLWVPGSERSYDLTGLKPGTEYSVLIHGVKGGLLSSPLSAIFTT
notes: FN3 domain
For the molecule B10, the “Apical domain, RLU” value in experiment [1] was 6.16e+06 RLU. Also, the “hCD71, RLU” value in experiment [2] worked out at 1.56e+06 RLU. In addition, the “apical domain:HSA” value in experiment [3] is 361. The “hCD71:HSA” value in experiment [4] is 91.2.
